# Assay: yeast display, Sf9 membrane polyspecificity reagent, FACS + sequencing; frameworks hold sequencing errors
# Summary of the method: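 Nanobodies from a synthetic yeast display library (Saccharomyces cerevisiae BJ5465), induced 36–48 hours with galactose, were stained 1 hour at 4 °C with 10% biotinylated, detergent-solubilized Sf9 membrane reagent, enriched on streptavidin microbeads, then FACS-sorted. Anti-HA (expression) and streptavidin (reagent binding) fluorescence set low and high (top ~1%) gates. Polyreactivity labels come from the gate of origin. Genes were colony-PCR amplified, MiSeq 2 × 250 sequenced and filtered by CDR length.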
row,Sequence,polyreactivity (PSR sort gate)
1,QVQLVESGGGLVQAGGSLRLSCAASGRTFAFYAMGWYRQAPGKERELVASISSSGDRTYYADSVKGRFTISRDNAKNTVYLQMNSLKPEDTAVYYCAARWRYTYYYWGQGTQVTVSS,high polyreactivity
2,QVQLVESGGGLVQAGGSLRLSCAASGRTFAGNAMGWYRQATGKERELVASITWTGGRTYYADSVKGRFTISRDNAKNTVYLQMNSLKPEDTAVYYCAARPDYYYFRGDYWGQGTQVTVSS,high polyreactivity
3,QVQLVESGGGLVQAGGSLRLSCAASGRTFAINVMGWYRQAPGKEMELVASIRGRGGRTNYADSVKGRFTISRDNAKNSVYLQMNSLKPEDTAVYYCAAAYTGGGQYEYEYWGQGTQVTVSS,high polyreactivity
4,QVQLVESGGGLVQAGGSLRLSCAASGRTFAIYAMGWYRQAPGKERELVATIRGGSTYYADSVKGRFTISRDNAKNTVYLQMNSLKPEDTAVYYCAAGWYRYYGGFGYWGQGTQVTVSS,high polyreactivity
5,QVQLVESGGGLVQAGGSLRLSCAASGRTFALNTMGWYRQAPGKERELVAAITIGGSTYYADSVKGRFTISRDNAKNTVYLQMNSLKPEDTAVYYCAARTRGAWAYWGQGTQVTVSS,high polyreactivity
6,QVQLVESGGGLVQAGGSLRLSCAASGRTFALYAMGWYRQAPGKERELVASISWRGGSTYYADSVKGRFTISRDNAKNTVYLQMNSLKPEDTAVYYCAADTWSYGPLNYRLEYWGQGTQVTVSS,low polyreactivity
7,QVQLVESGGGLVQAGGSLRLSCAASGRTFALYTMGWYRQAPGKERELVAAINWSGTSTYYADSVKGRFTISRDTAKNTVYLQMNSLKPEDTAVYYCNARGQYNRLMDYWGQGTKVTVSS,low polyreactivity
8,QVQLVESGGGLVQAGGSLRLSCAASGRTFANYAMGWYRQAPGKERELVAAISFSTVSTYYADSVKGRFTISRDNAKNTVYLQMNSLKPEDTAVYYCAARRLGYYRKVKELDYWGQGTQVTVSS,high polyreactivity
9,QVQLVESGGGLVQAGGSLRLSCAASGRTFANYVMGWYRQAPGKERELVAGMTGSGGSTYYADSVKGRFTISRDNAKNTVYLQMNSLKPEDTAVYYCAKRYVYVASMGYWGQGTQVTVSS,high polyreactivity
10,QVQLVESGGGLVQAGGSLRLSCAASGRTFAPYAMGWSRQAPGKEREFVAGITWSSSSTYADSVKGRFTISRDNAKNTVYLQMNSLKPEDTAVYYCAARHAKGGNRHYYWGQGTQVTVSS,high polyreactivity
11,QVQLVESGGGLVQAGGSLRLSCAASGRTFAPYAMGWYRQAPGKERELVAAIRWTGTSTYYADSVKGRFTISRDNAKNTVYLQMNSLKPEDTAVYYCNADLYNREGWGQGTQVTVSS,high polyreactivity
12,QVQLVESGGGLVQAGGSLRLSCAASGRTFARNAMGWYRQAPGKDRELVAAISSSGGSTYYADSVKGRFTISRDNAKNTVYLQMNSLKPEDTAVYYCAARSRHAYGYWGQGTQVTVSS,high polyreactivity
13,QVQLVESGGGLVQAGGSLRLSCAASGRTFARYAMGWYRQAPGKERDLVADITSGGSTNYADSVKGRFTISRDNAKNTVYLQMNSLEPEDTAVYYCAAYVVWSWFEEYEYWGQGTQVTVSS,high polyreactivity
14,QVQLVESGGGLVQAGGSLRLSCAASGRTFARYTMGWYRQAPGKERELVASITRGGSTYYADSVKGRFTISRDNAKNTVYVQMNSLKPEDTAVYYCAARFPQHNYWAMDYWGQGTQVTVSS,high polyreactivity
15,QVQLVESGGGLVQAGGSLRLSCAASGRTFARYVMGWYRQAPGKERELVASISNSGGSTYYADSVKGRFTISRDNAKNTVYLQMNSLKPEDTAVYYCARRYYSYTTYRYDYWGQGTQVTVSS,high polyreactivity
16,QVQLVESGGGLVQAGGSLRLSCAASGRTFASNALGWYRQAPGKERELVADISSSGGTTYYADSVKGRFTISRDNAKNTVYLQMNSLKPEDTAVYYCAAVSSQDDPVKAWDYDYWGQGTQVTVSS,low polyreactivity
17,QVQLVESGGGLVQAGGSLRLSCAASGRTFASNDMGWYRQAPGKERELVADINNGARTYYADSVKGRFTISRDNAKNTVYLQMNSLKPEDTAVYYCNARPWYWWEGRYDYWGQGTQVTVSS,high polyreactivity
18,QVQLVESGGGLVQAGGSLRLSCAASGRTFASYAMGWYRPAPGKEREFVAVISVNGGNTYYADSVKGRFTISRDNAKNTVYLQMNSLKPEDTAVYYCARFDGWYQGYYPLYEFDYWGQGTQVTVSS,high polyreactivity
19,QVQLVESGGGLVQAGGSLRLSCAASGRTFASYAMGWYRQAPGKERELVATIRRSGTSTYYADSVKGRFTISRDNAKNTVYLQMNSLKPEDTAVYYCAALRSLLYRTYGYWGQGTQVTVSS,low polyreactivity
20,QVQLVESGGGLVQAGGSLRLSCAASGRTFATNVMGWYRQAPGKERELVAAISRSGGRTYYADSVKGRFTISRDNAKNTVYLQMNSLKPEDTAVYYCAARRRRFYYQYYRYDYWGQGTQVTVSS,high polyreactivity
21,QVQLVESGGGLVQAGGSLRLSCAASGRTFAVYAMGWYRQAPGKERELVAAITRSGGSTYYADSVKGRFTISRDNAKNTVYLQMNSLKPEDTAVYYCAAGGQARHDYWGQGTQVTVSS,low polyreactivity
22,QVQLVESGGGLVQAGGSLRLSCAASGRTFAWYAMGWYRQAPGKERELVAVIRRGSGDTYYADSVKGRFTISRDNAKNTVYLQMNSLKPEDTAVYYCAAKSVAYKTRAGGVRYESWGQGTQVTVSS,high polyreactivity

row,Sequence,polyreactivity (PSR sort gate)
1,QVQLVESGGGLVQAGGSLRLSCAASGRTFAYNAMGWYRQAPGKERELVAAISGNGGRTYYADSVKGRFTISRDNAKNTVYLQMNSLKPEDTAVYYCNAAVGYYSYSYYTKVGVDYWGQGTQVTVSS,high polyreactivity
2,QVQLVESGGGLVQAGGSLRLSCAASGRTFAYNAMGWYRQAPGKERELVADITSGGSTYYADSVKGRFTISRDNAKNTVYLQMNRLKPEDTAVYYCAAYPQFWYWDYNYWGQGTQVTVSS,high polyreactivity
3,QVQLVESGGGLVQAGGSLRLSCAASGRTFAYNDRGWYRQATGKERELVAAISWSDGTTYYADSVKGRFTISRDNAKNTVYLQMYSLKPEDTAVYDCAAESYPAVVASYVSEFDYWGQGTQVPVSS,low polyreactivity
4,QVQLVESGGGLVQAGGSLRLSCAASGRTFAYNTMGWYRQAPGKERELVAAISTSGVRTFYADSVKGRFTISRDNAKNTVYLQMNSLKPEDTAVYSYDWGQGTQVTVSS,low polyreactivity
5,QVQLVESGGGLVQAGGSLRLSCAASGRTFAYYAMGWYKQAPGKERELVAAISWSGGSTYYADSVKGRFTISRDNAKNTVYLQMNSLKPEDTAVYYCAARRYGVPPTYDYWGQGTQVTVSW,high polyreactivity
6,QVQLVESGGGLVQAGGSLRLSCAASGRTFAYYAMGWYRQAPGKERELVAAIDSSGGSTYYADSVKARFTISRDNAKNTVYLQMNSLKPEDTADYYCAASYPYDRYDQGGYGYWGQGTQVTVSS,low polyreactivity
7,QVQLVESGGGLVQAGGSLRLSCAASGRTFAYYVMGWYRPAPGKERQLVAAINRSDGSTSYADSVKGRFTISRDNAKNTVYLQMNSLKPEDTAVYYCAKSKPVGPYYYWGQGTQVTVSS,high polyreactivity
8,QVQLVESGGGLVQAGGSLRLSCAASGRTFCGNVMGWYRQAPGKERELVAAITNGASTNYADSVKGRFTISRDNAKNTVYLQMNSLKPEDTAVYYCAASANNWRRRGRSYEYWGQGTQVTVSS,low polyreactivity
9,QVQLVESGGGLVQAGGSLRLSCAASGRTFCRYPMGWYRQAPGKERELVAAISSSGITYYAESVKGRFTISRDNAKNTVYLQMNSLKPEDTEVYYCAVRWGRGFWGQGTQVTVSS,high polyreactivity
10,QVQLVESGGGLVQAGGSLRLSCAASGRTFDAYAMGWYRQAPGKERELVATITSGGGTYYADSVKGRFTISRDNAKNTVYLQMNSLKPEDTAVYYCKKRYVVSRKYDYWGQGTQVTVSS,low polyreactivity
11,QVQLVESGGGLVQAGGSLRLSCAASGRTFDDYAMGWYIQAPGKERELVAGIRWSVGNTDYADSVKGRFTISRDNAKNTVYLQMNSLKPEDTAVYYCNARPFLTVLYLFYGNNYDYWGQGTQVTVSS,low polyreactivity
12,QVQLVESGGGLVQAGGSLRLSCAASGRTFDEYAMGWYRQAPGKERELVDAINSSGNTYYADSVKGRFTISRDNAKNTVYLQMNSLKPEDTAVYYCAVRSYNTIYDDMDYWGQGTQVTVSS,low polyreactivity
13,QVQLVESGGGLVQAGGSLRLSCAASGRTFDHNAMGWYRQAPGKERELVAAITSRGGSTYYADSVKGRFTISRDNAKNTVYLQMNSLKPEDTAVYYCNRYKSSSYIRGDYWGQGTQVTVSS,high polyreactivity
14,QVQLVESGGGLVQAGGSLRLSCAASGRTFDIYAMGWYRQAHGKERELVAAISSGGSTYYADSVKGRFTISRDNAKNTVYLQMNSLKPEDTAVYYCAVRWYDQVSRRGIGYYWGQGTQVTVSS,low polyreactivity
15,QVQLVESGGGLVQAGGSLRLSCAASGRTFDIYAMGWYRQAPGKERELVAAISSGGSTYYADSVKGRFTISRDNAKNTVYLQMNSLKPEDTAVYYCAVRWYDQVSRRGIGYYWGQGTQVTVSS,low polyreactivity
16,QVQLVESGGGLVQAGGSLRLSCAASGRTFDLNAMGWYRQAPGKERELVAAISFSVADTYYADSVKGRFTISRDNAKNTVYLQMNSLKPEDTAVYYCAADSELGSLSGESDYWGQGTQVTVSS,low polyreactivity
17,QVQLVESGGGLVQAGGSLRLSCAASGRTFDLYAMGWYRQAPGKERELVARITNIDDSTYYADSVKGRFTISRDYAKNTVYLQMNSLKPEDTAVYYCNAASYSRGPARYDYWGQGTQVTVSS,high polyreactivity
18,QVQLVESGGGLVQAGGSLRLSCAASGRTFDPYAMGWYRQAPGKDRELVAAISRSGGSTYYADSVKGRFTISRDNAKNTVYLQMNSLKPEDTAVYYCAADASRYYYEYDYWGQGTQVTVSS,high polyreactivity
19,QVQLVESGGGLVQAGGSLRLSCAASGRTFDQYAMGWYTPAPGKARELVADITWSGGTTRYADSVKRRFTISRDNAKNTVYLQMNSLKPEDTAVYYCAVDVTCGYNYWGQGTQVNVSS,low polyreactivity
20,QVQLVESGGGLVQAGGSLRLSCAASGRTFDRNAMGWYRQAPGKERELVAAITSRGGRTYYADSVKGRFTISRDNAKNTVYLQMNSLKPEDTAVYYCAADLFSSRVRSNFDYWGQGTQVTVSS,high polyreactivity
21,QVQLVESGGGLVQAGGSLRLSCAASGRTFDSNTMGWYRQAPGKERELVAAITGSGGRTYYADSVKGRFTISRDNAKNSVYLQMNSLKPEDTAVYYCAARPYFYERSAGYYWGQGTQVTVSS,high polyreactivity

# Reference: the nanobody polyreactivity screen of Harvey et al. (2022)
